Assay: yeast display, Sf9 membrane polyspecificity reagent, FACS + sequencing; frameworks hold sequencing errors
Method in brief: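 In a synthetic yeast display library (Saccharomyces cerevisiae BJ5465), nanobody expression was induced with galactose for 36–48 hours. FACS gates were set low and high (top ~1%) using anti-HA fluorescence for expression and streptavidin fluorescence for binding of the Sf9 membrane reagent. Each polyreactivity label is drawn from the gate of origin.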
In the case of “QVQLVESGGGLVQAGGSLRLSCAASGLTLGSYAMGWYRQAPGKERELVAAISRRSGRTYYADSVKGRFTISRDNAKNTVYLQMNSLKPEDTAVYYCNRGYTAQVYTEFDYWGQGTQVTVSS”, the “polyreactivity (PSR sort gate)” value is reported as “low polyreactivity”. In the case of “QVQLVESGGGLVQAGGSLRLSCAASGLTLLKNAMGWYRQAPGKEREYADSVKGRFTISRDNAKNTVYLQMNSLKPEDTAVYYCAKDVNGGYFYYQYPAQYYYWGQGTQVTVSS”, the “polyreactivity (PSR sort gate)” value is reported as “low polyreactivity”. For “QVQLVESGGGLVQAGGSLRLSCAASGLTLRNYAMGWYRQAPGKERELVARITTGGSTHYADSVKGRFTISRDNAKNTVSLQMHSLKPEDTAVYYCNTGPYTFVSPEYYYWGQGTQVTVSS”, the “polyreactivity (PSR sort gate)” value was “low polyreactivity”. For “QVQLVESGGGLVQAGGSLRLSCAASGLTLRWYDMGWYRQAPGKERELVAAITTNGGSTYYADSVKGRFTISRDNAKNTVYLQMNSLKPEDTAVYYCAALYWRSTVGAYSTYEYDYWGQGTQVTVSS”, the “polyreactivity (PSR sort gate)” value was “high polyreactivity”. With “QVQLVESGGGLVQAGGSLRLSCAASGLTLSGYAMGWYRQAPGKERELVAAISSTGGSTYYADSVKGRFTISRDNAKNTVYLQMNSLKPEDTAVYYCAKGYSPTRVRLRYPRYDTYNHWGQGTQVTVSS” the “polyreactivity (PSR sort gate)” value was “high polyreactivity”. With “QVQLVESGGGLVQAGGSLRLSCAASGLTLSYNAMGWYRQAPGKERELVAAIRSGGSTNYADSVKGRFTISRDNAKNTVYLQMNSLKPVDTAVYYCAARFRYLPYRYGRYQSGYEYWGQGTQVTVSS” the “polyreactivity (PSR sort gate)” value was “high polyreactivity”. For “QVQLVESGGGLVQAGGSLRLSCAASGLTLSYYAMGWYRQAPGKERELVAAISSGGSTYYADSVKGRFTISRDNAKNTVYLQMNSLKPEDTAVYYCAAQWWRLYWEYYYWGQGTQVTVSS”, the “polyreactivity (PSR sort gate)” value was “low polyreactivity”. For “QVQLVESGGGLVQAGGSLRLSCAASGLTLTPYVMGWYRQAPGKEREFVAAITYTGGRTYYADSVKGRFTISRDNAKNTVYLKMNSLKPEDTAVYDCNKGYYQTWPRYYSWGQGTQVTVSS”, the “polyreactivity (PSR sort gate)” value was “high polyreactivity”. With “QVQLVESGGGLVQAGGSLRLSCAASGLTLYRYAMGWYRQAPGKEREFVASISWSGGSTYYADSVKGRFTISRDNANNTVYLQMNSLKPEDTAVYYCATDSDTSQLGYDYWGQGTQVTVSS” the “polyreactivity (PSR sort gate)” value was “low polyreactivity”. In the case of “QVQLVESGGGLVQAGGSLRLSCAASGLTSDENAMGWYRQAPGKERELVAVISNSGDSTYYADSVKGRFTISRDTAKNTVYLQLNSLKPEDTAVYNCAADGLSKFDYWGQGTQVTVSS”, the “polyreactivity (PSR sort gate)” value is reported as “low polyreactivity”. In the case of “QVQLVESGGGLVQAGGSLRLSCAASGLTSLGNAMGWYRQAPGKERELVAAITRTGTSTYYADSVKGRFTISRDNAKNTVYLQMNSLKPEDTAVYYCAALDRYSTEYKYQLYKQEYDYWVQGTQVTVSS”, the “polyreactivity (PSR sort gate)” value is reported as “low polyreactivity”. In the case of “QVQLVESGGGLVQAGGSLRLSCAASGLTSSGNAMGWYRQAPGKERELVAAISWKAGSTYYADSVKGRFTISRDNAKNTVYLQMNSLKPEDTGVYYCAATLWSKTGYDYWGQGTIVTVSS”, the “polyreactivity (PSR sort gate)” value is reported as “low polyreactivity”. For “QVQLVESGGGLVQAGGSLRLSCAASGLTSTNNAMGWYRQAHGKERELVAAITSGSTTNYADSVKGRFTISRDNAKNTVYLQMNSLKPEDTAVYYCAAQYGVCWRRYYYPEYDYWGQGTQVTVSS”, the “polyreactivity (PSR sort gate)” value was “low polyreactivity”. For “QVQLVESGGGLVQAGGSLRLSCAASGLTSYDYGMGWYRQAPGKERELVAAITWSGGSTYYADSVKGRFTISRDNAKNTVYLEMHSLKPEDTAVYYCAAESWGYGWYGYWGQGNQVTVSS”, the “polyreactivity (PSR sort gate)” value was “low polyreactivity”. For “QVQLVESGGGLVQAGGSLRLSCAASGLTYKYYAMGWYRQAPGKERELVARISRGGNTNYADSVKGRFTISRDNAKNTVYLQMNSVKPEDTAVFYCAATVRVYDYWGQGTQVSVSS”, the “polyreactivity (PSR sort gate)” value was “high polyreactivity”. For “QVQLVESGGGLVQAGGSLRLSCAASGMIFGYYAMGWYRQAPAKERELVAAITGSGGRTYYADSVKGRFTISRDNAKNTVYLQMNSLKTEDTAVYYCADRGVNGMGYWGQGTHVTVSS”, the “polyreactivity (PSR sort gate)” value was “high polyreactivity”. In the case of “QVQLVESGGGLVQAGGSLRLSCAASGNAIGWYRQAPGKERELVASINRSGGRTYYADSVKGRFTISRDNAKNTVYLQMNSLKPEDTAVYYCAARTHYDSDYWGQGTQVTVSS”, the “polyreactivity (PSR sort gate)” value is reported as “low polyreactivity”. In the case of “QVQLVESGGGLVQAGGSLRLSCAASGNIFANAMGWYRQAPGKERELVAAISRSGGSTYYADSVKGRFTISRDNAKNTVYLQMNSLKPEDTAVYYCAARTTRGPTFGYWGQGTQVTVSS”, the “polyreactivity (PSR sort gate)” value is reported as “high polyreactivity”. In the case of “QVQLVESGGGLVQAGGSLRLSCAASGNIFATYAMGWYRQAPGKESELVAAITSSGGRTYYADSVKGRFTISRDNAKISVYLQMNSLKPEDTAVYNCNAVYSLYYTRYNYWGHGTQVTVSS”, the “polyreactivity (PSR sort gate)” value is reported as “high polyreactivity”. With “QVQLVESGGGLVQAGGSLRLSCAASGNIFAYYAMGWYRQAPGKERELVAAISRRGGSTYYADSVKGRFTISRDNAKNTVYLQMNSLKPEDTAVYYCNADTGNRGYDYWGQGTQVTVSS” the “polyreactivity (PSR sort gate)” value was “high polyreactivity”. With “QVQLVESGGGLVQAGGSLRLSCAASGNIFDIYAMGWYRQATGKERELVAAICSGGSTYYADSVKGRFTISRDNAKNTVYLQMISLKTEDTAVDYCAESRVGYYRYEYWGQGTQVTVSS” the “polyreactivity (PSR sort gate)” value was “low polyreactivity”. With “QVQLVESGGGLVQAGGSLRLSCAASGNIFDRNAMGWYRHAPGKQRELVAAISRSGGRTYYADSVKGRFTISRDNAKNTVYLQMISLKPEDTGVYYCATTYGGTYEYDYWGQGTQVTVSS” the “polyreactivity (PSR sort gate)” value was “high polyreactivity”. With “QVQLVESGGGLVQAGGSLRLSCAASGNIFDSNAMGWYRQAPGKERELVAAITWSGGSTYYADSVKGRFTISRDNAKNTVYLQMNSLKPEDTAVYYCNAVRQQRNVPGGQYEFDYWGQGTQVTVSS” the “polyreactivity (PSR sort gate)” value was “high polyreactivity”. In the case of “QVQLVESGGGLVQAGGSLRLSCAASGNIFDTNAMGWYRQAPGKERELVATITQRGGTTYYADSVKGRFTISRDNAKNTVYLQINILKPEDTAVYYCNAGPVRLPYDSWGQGTQVTVSS”, the “polyreactivity (PSR sort gate)” value is reported as “low polyreactivity”. In the case of “QVQLVESGGGLVQAGGSLRLSCAASGNIFFVYDMGWYRQSPGKERELVAAISWSGGSTYADSVKGRFTISRDNAKNTVYLQMNSLKPEDTAVYYCNAQGYRYRIGYDYWGQGTQVTVSS”, the “polyreactivity (PSR sort gate)” value is reported as “low polyreactivity”. For “QVQLVESGGGLVQAGGSLRLSCAASGNIFGFYTMGWYRQAPGKERELVAAIRSRGGSTNYADSVKGRFTISRDNAKNTVYIQMNSLKPEDTAVYYCNKDGTWLARAVTYADFDYWGQGTQVTVSS”, the “polyreactivity (PSR sort gate)” value was “low polyreactivity”. In the case of “QVQLVESGGGLVQAGGSLRLSCAASGNIFGIYTMGWYRQAPGKEREFFAVISLSGTSTYYADSVKGRFTISRDNAKNTVYLQMNSLKPEDTAVYYCNARTPHNKGRRRAYDYWGLGTQVTVSS”, the “polyreactivity (PSR sort gate)” value is reported as “high polyreactivity”. In the case of “QVQLVESGGGLVQAGGSLRLSCAASGNIFGKYAMGWYRQAPGKERELVAAISSGGRTNYADSVKGRFTISRDNAKNTVYLQMNSLKPEDTAVYYCAKRYFRTKGYYYWGQGTQVTVSS”, the “polyreactivity (PSR sort gate)” value is reported as “high polyreactivity”. In the case of “QVQLVESGGGLVQAGGSLRLSCAASGNIFGWYAMGWYRQAPGKERELVAAISSGGRTNYADSVKGRFTISRDNAKNTVYLQMNSLKPEETAVYYCAVGLHKRPPPPRFRQFNYWGQGTQVTVSS”, the “polyreactivity (PSR sort gate)” value is reported as “low polyreactivity”. For “QVQLVESGGGLVQAGGSLRLSCAASGNIFGYYVMGWYRPAPGKERELVAGISSGDSTDYADSVKGRFTISRDNAKNTVYLQMNSLKPEDTAVYYCNADWNPTERWFYWYTPLGYDYWGQGTQVTVSS”, the “polyreactivity (PSR sort gate)” value was “low polyreactivity”. With “QVQLVESGGGLVQAGGSLRLSCAASGNIFHFYAIARYRQAPRKERELVATISWRGDGTYYADSVKGRFTISRDKAKNTVYFQLISLKPEETAVDYCAARGVWPEYDYWGQGTQVTVSS” the “polyreactivity (PSR sort gate)” value was “low polyreactivity”. In the case of “QVQLVESGGGLVQAGGSLRLSCAASGNIFKGYAMGWYRQAPGKERELVAAISKSGGSTYYADSVKGRFTISRDNAKNTVYLQMNSLKPEDTAVYYCAARSGGSGGTYGYWGQGTQVTVSS”, the “polyreactivity (PSR sort gate)” value is reported as “high polyreactivity”. In the case of “QVQLVESGGGLVQAGGSLRLSCAASGNIFKSYTMGWYRQAPGKERELVAAITSGGRTNYADSVKGRFTISRDNAKNTVYLQMNSLKPEDTAVYYCAAKHFRWGTGDYWGQGTQVTVSS”, the “polyreactivity (PSR sort gate)” value is reported as “high polyreactivity”. With “QVQLVESGGGLVQAGGSLRLSCAASGNIFKWYAMGWYRQAPGKERELVAAISKSGGSTYYADSVKGRFTISRDNAKNTVYLQMNSLKPEDTAVYYCAAGWKHGTYRYTVESNFDYWGQGTQVTVSS” the “polyreactivity (PSR sort gate)” value was “high polyreactivity”. In the case of “QVQLVESGGGLVQAGGSLRLSCAASGNIFKYYAMGWYRQAPGKERELVAAISWGGSRTYYADSVKGRFTISRDNAKNTVSLQMNSLKPEDTAVYYCAARVYGVDGFGYWGLGTQVTVSS”, the “polyreactivity (PSR sort gate)” value is reported as “high polyreactivity”. In the case of “QVQLVESGGGLVQAGGSLRLSCAASGNIFLFYVMAWYRQAPGKERELVAAITLSGTNTYYADSVKGRFTISRDNAKNTVYLQMNSLKPDDTAVYYCAAEPKTYDWYPWGQVIENYWGQGTQVTVSS”, the “polyreactivity (PSR sort gate)” value is reported as “low polyreactivity”. For “QVQLVESGGGLVQAGGSLRLSCAASGNIFLYYAMGWYIPAPGKEREFVSDIDSSGASTYYADSVKGRFTISRDNAKNTVYLQMNSLKPEDTAVYYCAAEFHWWYAGYDYGYWGQGTQVTVSS”, the “polyreactivity (PSR sort gate)” value was “low polyreactivity”. In the case of “QVQLVESGGGLVQAGGSLRLSCAASGNIFLYYAMGWYRQAPGKERELVADIDASGASTYYADSVKGRFTIARDNAKKTVYLQLNSLTPEDTAVYYCAAEFHWWYAGYDYGYWGQGTQVTVSS”, the “polyreactivity (PSR sort gate)” value is reported as “low polyreactivity”. In the case of “QVQLVESGGGLVQAGGSLRLSCAASGNIFNEYAMGWYRQAPGKERELVAAITWSAGSTYYADSVKGRFTISRDNAKNTVYLQMNSLKPEDTAVYYCNAEYTWHRGYDYWGQGTQVTVSS”, the “polyreactivity (PSR sort gate)” value is reported as “low polyreactivity”. For “QVQLVESGGGLVQAGGSLRLSCAASGNIFPAYAMGWYRPAPGKERELVATISRRGGGTYYADSVKGRFTISRDNAKNTVYLQMNSLKPEDTAVYYCNGAGWTSAYDYWGQGTQVTVSS”, the “polyreactivity (PSR sort gate)” value was “low polyreactivity”. With “QVQLVESGGGLVQAGGSLRLSCAASGNIFPGYAMGWYRQAPGKERELVAGISGSGGRTYYADSVKGRFTISRDNAKITVYLQMNSLKPEDSAVYYCAAEFKYYYRFEYDYWGQGTQVTVSS” the “polyreactivity (PSR sort gate)” value was “low polyreactivity”.

— the nanobody polyreactivity screen of Harvey et al. (2022)
